US20090169520A1 (YISSUM RESEARCH DEVELOPMENT COMPANY OF THE HEBREW …, published 2009)

The binders below were run against synthetic Aβ (1-40) peptide (Biosource) (UniProt P05067 672-711) (assay: cell-based or functional assay).
synthetic Aβ (1-40) peptide (Biosource), sequence (P05067 672-711 limits assumed): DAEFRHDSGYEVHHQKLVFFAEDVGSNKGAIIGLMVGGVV

Binder	Lag (fold change) of Aβ fibrillation against no addition	Lag (h) before onset of Aβ fibrillation	Rate (fold change) of Aβ fibrillation against no addition
DTLDEAERQWKAEFHRWSSYMVHWKNQFDHYSKQDRCSDL [ASP40 (synthetic AChE-S C-terminal peptide, residues 575-614 of hAChE)]	1.1 fold	4.4 h	0.8 fold
ASP63 (synthetic AChE-S C-terminal peptide, residues 548-610 of hAChE) (peptide) peptide: PLEVRRGLRAQACAFWNRFLPKLLSATDTLDEAERQWKAEFHRWSSYMVHWKNQFDHYSKQDR	1.5 fold	5.9 h	0.7 fold
GNIDEAEWEWKAGFHRWNNYMMDWKNQFNDYTSKKESCVGL [BSP41 (synthetic BChE C-terminal peptide, residues 562-602 of hBChE)]	> 1.9 fold	> 7.5 h	0.4 fold
